A short description of data set [1]: Observations of animal health (Example 24). Type of data set: in vivo, C57BL/6 mice. The following applies: 1 or 5 mg/kg single i.v., whole experiment.
Data set [2] is described as follows: Observations of animal health (Example 25). Type of data set: in vivo, C57BL/6 mice. The following applies: 5 mg/kg single i.v., up to 168 hours. As for the experimental part: (§1) 20-21 weeks old female C57BL/6 mice (8 mice/group) received vehicle or hFc-Nep at 5 mg/kg as a single intravenous injection and Aβ40 was analysed at different time points after injection (between 1.5-168 hours, i.e., up to 1 week). The γ-secretase inhibitor M-550426 was given per orally and the animals were treated for 3 hours. A blank group was also included in the study. […] Blood collection, plasma processing and measurement of mouse Aβ40 levels in plasma were basically as described in Example 27.

Data set [3] has as its system fluorogenic peptide substrate V—Mca-Arg-Pro-Gly-Phe-Ser-Ala-Phe-Lys(Dnp)-OH. In words: Neprilysin enzyme activity FRET assay, cell media. Type of data set: biochemical. As for the experimental part:
The Neprilysin enzymatic activity was determined in a fluorescence resonance energy transfer (FRET) assay. Recombinant Human Neprilysin (R&D Systems), culture medium from Neprilysin or Fc-Neprilysin producing cells (AZ Sodertalje) or purified Neprilysin or Fc-Neprilysin was added into 96-well plate containing 10 μM of fluorogenic peptide substrate V—Mca-Arg-Pro-Gly-Phe-Ser-Ala-Phe-Lys(Dnp)-OH (R&D Systems). The final concentration of the control recombinant human Neprilysin was 0.1 or 0.25 μg/ml. 10 μM of Neprilysin inhibitor phosphoramidone (BIOMOL) was added into some wells in order to control the specificity of the signal in the assay and verify the specific Neprilysin activity. Following addition of all components to wells, plate was immediately placed into a fluorescent plate reader (Ascent) and signal was recorded for every minute for 20 minutes at the excitation 340 nm and emission 405 nm. The activity of enzyme was evaluated by calculating the velocity of reaction−Slope coefficient=ΣΔRFU/Δt. In order to compare the specific activity of the commercial recombinant Neprilysin and Fc-Neprilysin fusion protein, we introduced the specific activity coefficient, which is calculated according to this formula: Specific activity=slope coefficient/pmol of Neprilysin or monomer of Fc-Neprilysin in assay. […]

For data set [4], the system named is Aβ40. In words: Plasma Aβ40 time-response after single i.v. dose (Example 25). Type of data set: in vivo, C57BL/6 mice. The following applies: 5 mg/kg single i.v., all time points (1.5, 6, 12, 24, 36, 72 and 168 hours). As for the experimental part: The objective of this study was to evaluate the time-response relationship of the hFc-Nep in plasma of female C57BL/6 mice after a single dose. The specific purpose is to find how long the reducing effect of hFc-Nep stays in the plasma, and to correlate the effect to the level of exposure of test compound in plasma. The γ-secretase inhibitor M-550426 is included as a positive compound.
as §1

Data set [5] can be described thus: Plasma exposure (Example 24). Type of data set: in vivo, C57BL/6 mice. As for the experimental part:
13 weeks old female C57BL/6 mice (10 mice/group) received vehicle or hFc-Nep at 1 or 5 mg/kg as a single intravenous injection. M-550426 was administrated per orally at 300 μmol/kg 3 hours before termination. A blank group was also included in the study.
Blood was sampled from vehicle- and compound-treated animals at 1.5 and 3 hours after dose. Blood was withdrawn from anaesthetized mice by heart puncture into pre-chilled microtainer tubes containing EDTA. Blood samples were immediately put on ice prior to centrifugation. Plasma was prepared by centrifugation for 10 minutes at approximately 3000×g at +4° C. within 20 minutes from sampling. After blood sampling, mice were terminated. […] Mouse Aβ40 levels in plasma were analysed by commercial ELISA kit obtained from Biosource. The concentrations of Fc-Nep in plasma and in the formulations were assayed according to the procedures described in Example 27.

Data set [6] relates to Aβ 1-42. In words: Degradation of Aβ 1-42 in APPswe-tg mouse plasma pool (Example 28). The following applies: room temperature, 1 hour. Type of data set: biochemical. As for the experimental part:
Mouse plasma collected from 9 animals was stored at −70° C. Plasma was thawed and pooled just before the experiment. Aβ 1-40 and 1-42 in plasma pool was degraded by human Fc-Nep or mouse Fc-Nep with corresponding vehicles (50 mM Tris-HCl, 150 mM NaCl pH 7.5). The following final concentrations of the Fc-Nep constructs were used, 100, 32, 10, 3.2, 1, 0.3, 0.1 and […] and the degradation occurred at room temperature for 1 hour while shaking on an orbital shaker. The enzymatic reaction was stopped by adding Phosphoramidone (10 μM final concentration).
After degradation, a final concentration of 4.7 mM EDTA was added to the tg-mouse plasma tubes and the plasma samples were diluted 3 times in sample diluent, before the concentration of Aβ42 was analyzed using ELISA kit Innotest® β-Amyloid1-42 (Innogenetics, lot#177462, ref#80177) according to the manufacturers instructions. The highest concentration (100 μg/ml) of human Fc-Nep and mouse Fc-Nep degraded human plasma amyloid β 1-40 by 71% and 77%, respectively and Aβ 1-42 by 34% and 53%, respectively, as compared to plasma without Fc-Nep treatment.

B1: Fc-Neprilysin: extracellular domain of human Neprilysin fused to the human IgG2 Fc domain (including hinge), Fc at N-terminus; SEQ ID NO 11 (protein)
chain: ERKCCVECPPCPAPPVAGPSVFLFPPKPKDTLMISRTPEVTCVVVDVSHEDPEVQFNWYVDGVEVHNAKTKPREEQFNSTFRVVSVLTVVHQDWLNGKEYKCKVSNKGLPAPIEKTISKTKGQPREPQVYTLPPSREEMTKNQVSLTCLVKGFYPSDIAVEWESNGQPENNYKTTPPMLDSDGSFFLYSKLTVDKSRWQQGNVFSCSVMHEALHNHYTQKSLSLSPGKYDDGICKSSDCIKSAARLIQNMDATTEPCTDFFKYACGGWLKRNVIPETSSRYGNFDILRDELEVVLKDVLQEPKTEDIVAVQKAKALYRSCINESAIDSRGGEPLLKLLPDIYGWPVATENWEQKYGASWTAEKAIAQLNSKYGKKVLINLFVGTDDKNSVNHVIHIDQPRLGLPSRDYYECTGIYKEACTAYVDFMISVARLIRQEERLPIDENQLALEMNKVMELEKEIANATAKPEDRNDPMLLYNKMTLAQIQNNFSLEINGKPFSWLNFTNEIMSTVNISITNEEDVVVYAPEYLTKLKPILTKYSARDLQNLMSWRFIMDLVSSLSRTYKESRNAFRKALYGTTSETATWRRCANYVNGNMENAVGRLYVEAAFAGESKHVVEDLIAQIREVFIQTLDDLTWMDAETKKRAEEKALAIKERIGYPDDIVSNDNKLNNEYLELNYKEDEYFENIIQNLKFSQSKQLKKLREKVDKDEWISGAAVVNAFYSSGRNQIVFPAGILQPPFFSAQQSNSLNYGGIGMVIGHEITHGFDDNGRNFNKDGDLVDWWTQQSASNFKEQSQCMVYQYGNFSWDLAGGQHLNGINTLGENIADNGGLGQAYRAYQNYIKKNGEEKLLPGLDLNHKQLFFLNFAQVWCGTYRPEYAVNSIKTDVHSPGNFRIIGTLQNSAEFSEAFHCRKNSYMNPEKKCRVW
For the molecule B1, the “Observations of the animal health” value in data set [1] and in data set [2] was “no overt adverse effects” throughout. The “Specific activity (slope coefficient/pmol)” value was 13.4 in data set [3] (expression with pCEP4 vector) and 15.2 in data set [3] (expression with pEAK10 vector). Besides, in data set [4], the “Aβ40 reduction in plasma compared to vehicle” value is recorded as 67-80%. Also, the Mean plasma exposure in data set [5] (1 mg/kg i.v., 1.5 hours) was 14 µg/mL; in data set [5] (1 mg/kg i.v., 3 hours) it was 17 µg/mL; in data set [5] (5 mg/kg i.v., 1.5 hours), 89 µg/mL; in data set [5] (5 mg/kg i.v., 3 hours) it was 78 µg/mL. In data set [6] (highest concentration 100 μg/ml), the “Degradation of Aβ 1-42 compared to plasma without treatment” value was determined as 34%. Also, in data set [6], the EC50 is 1300 nM.

The EC50 is the midpoint of the concentration-response curve. Lower therefore signals greater potency.

Values taken from patent US20080242590A1, “New Method 706” (ASTRAZENECA AB, priority 2007, published 2008).
